Values joined by “and” are separate entries in the source; they are usually repeats but may differ in a detail not shown here. Equal values may be shown once.
B1: wt TaLcc1: Wild type laccase purified from Thielavia arenaria ALKO4197 culture supernatant (protein)
chain: MKSWAAAVALMVGILSPHAAAAPPANPVQRDMLQVLEARQSGPTCNTPSNRACWTNGFDINTDYEVSTPNTGRTVAYQLTLTEKENWIGPDGVLKNVVMLVNDKIIGPTIRANWGDNIEVTVINNLKTNGTSMHWHGLRQLGNVFNDGANGVTECPIPPKGGRKTYKFRATQYGTSWYHSHFSAQYGNGVVGTIQIDGPASLPYDIDLGVFPLMDYYYRSADELVHFTQSNGAPPSDNVLFNGTARHPETGAGQWYNVTLTPGKRHRLRIINTSTDNHFQVSLVGHNMTVIATDMVPVNAFTVSSLFLAVGQRYDVTIDANSPVGNYWFNVTFGDGLCGSSNNKFPAAIFRYQGAPATLPTDQGLPVPNHMCLDNLNLTPVVTRSAPVNNFVKRPSNTLGVTLDIGGTPLFVWKVNGSAINVDWGKPILDYVMSGNTSYPVSDNIVQVDAVDQWTYWLIENDPTNPIVSLPHPMHLHGHDFLVLGRSPDELPSAGVRHIFDPAKDLPRLKGNNPVRRDVTMLPAGGWLLLAFKTDNPGAWLFHCHIAWHVSGGLSVDFLERPNDLRTQLNSNAKRADRDDFNRVCREWNAYWPTNPFPKIDSGLRHRFVEESEWMVR
modifications: Thielavia arenaria ALKO4197; (1)..(617) Deduced amino acid sequence of Thielavia arenaria ALKO4197 laccase 1 (Ta Lcc1)
notes: Wild type laccase purified from Thielavia arenaria ALKO4197 culture supernatant

Legend:
[1] = molecular target: T1, Thielavia arenaria ALKO4197 laccase TaLcc1, wild type (wt TaLcc1), SEQ ID NO: 12 (Canariomyces arenarius, UniProt F6N9E7); test: biochemical; conditions: pH 4.5, read-out: Inhibition (%) of laccase
T1 construct: predicted mature residues 22-604

[2] = system: Thielavia wild type laccase (wt TaLcc1); conditions: pH 4.5
[3] = system: recombinant Thielavia arenaria TaLcc1 laccase (rTaLcc1); format: biochemical
Protocol: The inhibition effect of different compounds on the activity of the recombinant TaLcc1 laccase was determined as described in Example 2.

[4] = Specific activity on guaiacol; format: biochemical; conditions: 25 mM MES buffer, pH 5.5
Protocol: (§1) Specific activities of the purified Thielavia laccase were determined towards different laccase substrates.

[5] = Specific activity on ABTS; format: biochemical; conditions: 25 mM succinate buffer pH 4.5, 25° C.
Protocol: The activity assay was carried out in accordance with the method developed by Niku-Paavola et al. (1988). The sample was diluted with 0.025 M succinate buffer, pH 4.5. […] The activity is expressed as nano katals.
as §1

Specific activity on DMP = format: biochemical; conditions: 25 mM MES buffer, pH 5.5
Protocol: as §1

[6] = Specific activity on syringaldazine; format: biochemical; conditions: 25 mM MES buffer, pH 5.5
Protocol: as §1

[7] = Isoelectric focusing (pI); format: physicochemical; conditions: pH range 3-9, ABTS staining
Protocol: Molecular weight of the Thielavia arenaria laccase (wt TaLcc1) was determined on SDS-PAGE according to Laemmli (1970). The gels used in the SDS-PAGE analysis were ready-made 12% Tris HCl gels (BioRad). Protein bands were visualized by staining with Coomassie Brilliant Blue (R 350; Pharmacia) and compared with molecular weight markers (Prestained Protein Marker Broad Range #7708S; New England BioLabs, Beverly, Mass.). The molecular weight of the Thielavia areanaria laccase was approximately 80 kDa. The isoelectric point of the laccase was determined with isoelectric focusing within the pH range of 3-9 (Pharmalyte IEF, Pharmacia) on a LKB 2117 Multiphor II Electrophoresis System (LKB Pharmacia, Bromma, Sweden) according to the manufacturer's instructions.
The purified recombinant Thielavia arenaria TaLcc1 was characterized in terms of pH optimum, thermal stability, and pI as described in Example 2. The molecular weight was determined by MALDI-TOF mass spectrometry on a Ultraflex™ time-of-flight instrument (BrukerDaltonics, Germany) as previously described (Palonen et al., 2003). The redox potential of TaLcc1 was also determined with a combined Pt-AgCl/KCl microelectrode at pH 5.0 according to Sigoillot et al (2004)

Row | Molecule | inhibition at 10000 µM [1] [%] | Inhibition(%) wt TaLcc1 [2] | Inhibition (%) of laccase rTaLcc1 [3] [%] | Specific activity on guaiacol [4] [nkat/mg] | Specific activity on ABTS [5] [nkat/mg] | Specific activity on DMP (Specific activity on DMP) [nkat/mg] | Specific activity on syringaldazine [6] [nkat/mg] | pI [7]
1 | O=C(O)CN(CCN(CC(=O)O)CC(=O)O)CC(=O)O [EDTA] | 0 | 0% | 5 |  |  |  |  | 
2 | [Cl-].[Na+] [NaCl] |  | 42% and 35% |  |  |  |  |  | 
3 | B1 |  |  |  | 63 | 1020 | 260 | 490 | 5.5-6.9

— patent US7927849B2, “Laccase enzyme and use thereof” (AB Enzymes OY, priority 2004, dated 2011)
